The text below walks through data of PMC5798299.

Assay [1] addresses BG505 SOSIP.664-D7324 trimer (unpurified, 293T) (HIV-1 (clade A, BG505)). Nature of the assay: native gel or EMSA; BN-PAGE of unpurified Env proteins in 293T culture supernatants, Western blot with bNAb 2G12. Background: In EMSA bound probe runs differently from free probe, usually more slowly.
Assay [2] deals with BG505 SOSIP.664-D7324 R308L trimer (unpurified, 293T) (HIV-1 (clade A, BG505)). Described as above.
Assay [3] concerns the target BG505 SOSIP.v4.1 S306L/R308L-D7324 trimer (HIV-1 (clade A, BG505)). Nature of the assay: native gel or EMSA; BN-PAGE of PGT145-purified trimers, Coomassie Blue stain.
The target of assay [4] is BG505 SOSIP.v4.1-D7324 trimer (HIV-1 (clade A, BG505)). The assay is described as above.
Assay [5] addresses BG505 SOSIP.v5.2-D7324 trimer (HIV-1 (clade A, BG505)). Described as above.
In assay [6] the target is BG505 SOSIP.v5.2 S306L/R308L-D7324 trimer (HIV-1 (clade A, BG505)). Described as above.
Assay [7] deals with BG505 SOSIP.664-D7324 S306L trimer (unpurified, 293T) (HIV-1 (clade A, BG505)). Briefly: native gel or EMSA; BN-PAGE of unpurified Env proteins in 293T culture supernatants, Western blot with bNAb 2G12.
Assay [8] has as its target BG505 SOSIP.664-D7324 trimer (PGT145-purified, 293F) (HIV-1 (clade A, BG505)). Nature of the assay: native gel or EMSA; BN-PAGE of PGT145-purified trimers, Coomassie Blue stain.
The target in assay [9] is BG505 SOSIP.664-D7324 A316W trimer (unpurified, 293T) (HIV-1 (clade A, BG505)). Briefly: native gel or EMSA; BN-PAGE of unpurified Env proteins in 293T culture supernatants, Western blot with bNAb 2G12.

In general, stoichiometry N refers to a count of units in the complex or per binding partner. “BG505 SOSIP.664-D7324 trimer (unpurified, 293T) (complex)” came in with a stoichiometry N in [1] of 3.

With “BG505 SOSIP.664-D7324 R308L trimer (unpurified, 293T) (complex)”, the stoichiometry N in [2] was 3.

Regarding “BG505 SOSIP.v4.1 S306L/R308L-D7324 trimer (complex)”, the stoichiometry N in assay [3] was determined as 3.

Substance BG505 SOSIP.v4.1-D7324 trimer (complex) showed a stoichiometry N in [4] of 3.

With BG505 SOSIP.v5.2-D7324 trimer (complex), in [5], the stoichiometry N was found to be 3.

As for “BG505 SOSIP.v5.2 S306L/R308L-D7324 trimer (complex)”, in assay [6], the stoichiometry N was 3.

In assay [7], “BG505 SOSIP.664-D7324 S306L trimer (unpurified, 293T) (complex)” had a stoichiometry N of 3.

Take “BG505 SOSIP.664-D7324 trimer (PGT145-purified, 293F) (complex)”: the stoichiometry N in [8] was 3.

The substance “BG505 SOSIP.664-D7324 A316W trimer (unpurified, 293T) (complex)” yielded a stoichiometry N in assay [9] of 3.
